{"source": "patent US20070042930A1", "about": "“Effect of beta-glucan on stem cell recruitment and tissue repair” (priority 2002, published 2007)", "molecules": {"B1": {"name": "G-CSF: used for G-CSF-mediated stem cell mobilization (bone marrow transplantation) (protein, UniProt P09919 31-207, looked up)", "Granulocyte …": "TPLGPASSLPQSFLLKCLEQVRKIQGDGAALQEKLVSECATYKLCHPEELVLLGHSLGIPWAPLSSCPSQALQLAGCLSQLHSGLFLYQGLLQALEGISPELGPTLDTLQLDVADFATTIWQQMEELGMAPALQPTQGAMPAFASAFQRRAGGVLVASHLQSFLEVSYRVLRHLAQP"}}, "tested_on": "complement", "assay": "G-CSF mobilization: complement activation in bone marrow", "format": "in vivo, mice", "data": [{"molecule": "B1", "values": [{"measurement": "complement activation in bone marrow", "setting": "G-CSF mobilization, FIG. 8A and 8B", "result": "stimulates complement activation in bone marrow with iC3b deposition on stromal cells"}, {"measurement": "complement activation in bone marrow", "setting": "immunoglobulin-deficient SCID mice, FIG. 9A through 9F", "result": "does not activate complement"}]}]}
